B1: 3BP-3869 (peptide)
peptide: {DOTA-AEEA}-YCE[dP]DWLTWSC-NH2
modifications: linker 2-11 via mXylylene
SMILES: CC(C)C[C@@H]1NC(=O)[C@H](Cc2c[nH]c3ccccc23)NC(=O)[C@H](CC(=O)O)NC(=O)[C@H]2CCCN2C(=O)[C@H](CCC(=O)O)NC(=O)[C@@H](NC(=O)[C@H](Cc2ccc(O)cc2)NC(=O)COCCOCCNC(=O)CN2CCN(CC(=O)O)CCN(CC(=O)O)CCN(CC(=O)O)CC2)CSCc2cccc(c2)CSC[C@@H](C(N)=O)NC(=O)[C@H](CO)NC(=O)[C@H](Cc2c[nH]c3ccccc23)NC(=O)[C@H]([C@@H](C)O)NC1=O
B2: 3BP-4555: LuDOTA-PPAc-Gln-[Cys(3MeBn)-Glu-pro-Asp-Af3(Cpsu)-Leu-Thr-Trp-Ser-Cys]-NH2 (peptide)
peptide: QCE[dP]D[Phe(3-NHCO(CH2)3SO2NH2)]LTWSC-NH2
modifications: linker 2-11 via mXylylene; not fully specified (N-terminus); printed as LuDOTA-PPAc-Gln-[Cys(3MeBn)-Glu-pro-Asp-Af3(Cpsu)-Leu-Thr-Trp-Ser-Cys]-NH2; also: lutetium complexed in DOTA
notes: also called natLu-DPI-4452

Starred links: 1 amine or outer side, 2 acyl side, 3 side chain; linkers in the order of their positions; H or OH if unused. Positions of bridges follow the written chain, without caps; N, C: chain ends. Non-standard residues stand in square brackets, D forms with d. Primed or numbered codes have the meaning given here. No end group written: not given here. *: point of attachment. Aph(CCprAc) = 4-aminophenylalanine acylated on the ring amine with 1-cyano-1-cyclopropanecarboxylic acid, N#CC1(C(=O)Nc2ccc(C[C@H](N[*:1])C(=O)[*:2])cc2)CC1; Aph(MSAc) = 4-aminophenylalanine acylated on the ring amine with 2-methanesulfonylacetic acid, CS(=O)(=O)CC(=O)Nc1ccc(C[C@H](N[*:1])C(=O)[*:2])cc1; Aph(SaPr) = 4-amino-L-phenylalanine, ring amine acylated by 3-sulfamoylpropanoic acid, NS(=O)(=O)CCC(=O)Nc1ccc(C[C@H](N[*:1])C(=O)[*:2])cc1; Aph(Iva) = 4-aminophenylalanine acylated on the ring amine with isovaleric acid, CC(C)CC(=O)Nc1ccc(C[C@H](N[*:1])C(=O)[*:2])cc1; Aph(FAc) = 4-aminophenylalanine acylated on the ring amine with fluoroacetic acid, O=C(CF)Nc1ccc(C[C@H](N[*:1])C(=O)[*:2])cc1; Aph(Prp) = 4-aminophenylalanine acylated on the ring amine with propionic acid, CCC(=O)Nc1ccc(C[C@H](N[*:1])C(=O)[*:2])cc1; Af3(DkpAc) = 3-amino-L-phenylalanine acylated on the ring amine with 2-(3,6-dioxopiperazin-2-yl)acetic acid; DOTA(Lu) = O=C1CN2CCN3CCN(CC(=O)*)CCN(CC2)CC(=O)[O][Lu]([O]1)[O]C(=O)C3; Phe(3-NHCO(CH2)3SO2NH2) = N[C@@H](Cc1cccc(NC(=O)CCCS(N)(=O)=O)c1)C(=O)O; APAc″ = 2-(4-(amino)piperidin-1-yl)acetic acid, NC1CCN(CC(=O)*)CC1; DOTA = O=C(O)CN1CCN(CC(=O)O)CCN(CC(=O)*)CCN(CC(=O)O)CC1; mXylylene = c1cc(C[*:1])cc(C[*:2])c1; N6iQui = not defined here; AEEA = NCCOCCOCC(=O)O Where only a bound is given, the exact number is not on record here.

Ten molecules from patent publication US20250339569A1 (3B PHARMACEUTICALS, published 2025) can be followed below.

The target of one test is human carbonic anhydrase 9 (CAIX) (human, UniProt Q16790 38-459). The test is described as follows: FACS competition on HT-29 cells, competitor tracer 3BP-4149; category C = pIC50 6.1-7.0. How it is done: CAIX-expressing human HT-29 colorectal cancer cells (DSMZ, RRID: CVCL_0320) were cultured in McCoys's 5A modified medium (Biochrom, #F1015) including 10% fetal calf serum (FCS), 2 mM L-glutamine, 100 U/ml penicillin and 100 μg/mL streptomycin. Cells were detached with Accutase (Biolegend, #423201) and washed in FACS buffer (PBS including 1% FCS). Cells were diluted in FACS buffer to a final concentration of 500.000 cells per ml. 200 μL of the cell suspension were transferred to a u-shaped non-binding 96-well plate (Greiner) and cells were washed in ice-cold FACS buffer.
When biotinylated compounds were used an additional incubation step with 1 μg/mL APC-Streptavidin (Miltenyi; #130-106-791) in 50 μL FACS buffer for 30 minutes on ice was performed.
Cells were washed twice with ice-cold FACS buffer and analyzed in an Attune NxT flow cytometer (Thermo Fisher). Median fluorescence intensities (MFI) of the APC/Cy5-channel were calculated by Attune NxT software.
{DOTA-APAc″}-VYCE[dP]E(N6iQui)WLTWSC-NH2 (linker 3-12 via mXylylene; reading uncertain) [3BP-4328] had a pIC50 of 6.1 to 7 pic50.
{DOTA-APAc″}-VYCE[dP]D[Aph(MSAc)]LTWSC-NH2 (linker 3-12 via mXylylene) [3BP-4360] had a pIC50 of 6.1 to 7 pic50.
On to {DOTA-APAc″}-VYCE[dP]D[Af3(DkpAc)]LTWSC-NH2 (linker 3-12 via mXylylene) [3BP-4288], for which the pIC50 was in the range of 6.1 to 7 pic50.
In the case of {DOTA-APAc″}-VYCE[dP]D[Aph(Prp)]LTWSC-NH2 (linker 3-12 via mXylylene) [3BP-4347], the pIC50 was in the range of 6.1 to 7 pic50.
In the case of {DOTA-APAc″}-VYCE[dP]D[Aph(FAc)]LTWSC-NH2 (linker 3-12 via mXylylene) [3BP-4358], the pIC50 is 6.1 to 7 pic50.
Turning to {DOTA-APAc″}-VYCE[dP]D[Aph(CCprAc)]LTWSC-NH2 (linker 3-12 via mXylylene) [3BP-4357], the pIC50 was in the range of 6.1 to 7 pic50.
The same measure, in the same setting: the value for {DOTA-APAc″}-VYCE[dP]D[Aph(Iva)]LTWSC-NH2 (linker 3-12 via mXylylene) [3BP-4348] was 6.1 to 7 pic50.

The target in another test is T1, Fc-fusion protein of human carbonic anhydrase IX (human, UniProt Q16790 38-414). The test is described as follows: SPR, captured hCAIX-Fc; t1/2 category C: 2.1-5.0 min. The protocol: (§1) Stock solutions of test compounds were prepared by dissolving each compound in DMSO. DMSO stock solution were diluted 1:1000 in Running Buffer without DMSO. […] SPR binding analyses were performed in Single Cycle Kinetic (SCK) mode at 25° C.
(§2) For each test compound, SPR raw data in the form of resonance units (RU) were plotted as sensorgrams using the Biacore™ T200 control software. The signal from the blank sensorgram was subtracted from that of the test compound sensorgram (blank corrected). The blank corrected sensorgram was corrected for baseline drift by subtracting the sensorgram of a SCK run without the test compound (running buffer only). […] Raw data and fit results were imported as text files in IDBS. The pKD value (negative decadic logarithm of dissociation constant) was calculated in the IDBS excel template.
(In general: In SPR one partner is held on a chip, and binding of the other changes the refractive index at the surface.)
As to B1, the “t1/2 (half-life of the complex, SPR)” value lay in the range of 2.1 to 5 min.

Another test addresses T1, Fc-fusion protein of human carbonic …. The test is described as follows: SPR, captured hCAIX-Fc; pKD category B: 7.1-8.0. The protocol: as §1, §2
The molecule B1 gave a pKD of 7.1 to 8 pkd.

The target of the next test is T2, human carbonic anhydrase 4 (CAIV), biotinylated (Sino Biological Cat #10472-H08H) (human, UniProt P22748 19-283, biotinylated (sites not given)).
T2 construct: Bought protein, biotinylated and captured with the Biotin CAPture Kit; also called hCAIV-bio; carbonic anhydrase IV
T2 sequence (P22748 19-283 limits assumed): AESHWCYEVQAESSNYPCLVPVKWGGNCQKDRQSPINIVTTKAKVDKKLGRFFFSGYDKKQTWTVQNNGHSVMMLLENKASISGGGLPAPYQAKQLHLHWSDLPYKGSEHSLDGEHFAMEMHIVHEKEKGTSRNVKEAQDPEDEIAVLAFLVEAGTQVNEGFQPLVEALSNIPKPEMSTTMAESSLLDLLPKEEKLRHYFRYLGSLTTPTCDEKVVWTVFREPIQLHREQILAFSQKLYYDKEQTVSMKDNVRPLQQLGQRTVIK
The test is described as follows: SPR (Biacore T200), biotinylated CAIV captured with Biotin CAPture Kit; limit of the category in which no binding is told.
Take {DOTA(Lu)}-QCE[dP]D[Aph(SaPr)]LTWSC-NH2 (linker 2-11 via mXylylene; also: DOTA complexing non-radioactive lutetium, also called natLu-3BP-4501) [3BP-4581: LuDOTA-Gln-[Cys(3MeBn)-Glu-pro-Asp-Aph(SaPr)-Leu-Thr-Trp-Ser-Cys]-NH2]: the pKD was < 6.
Same read-out and setting: next, B2: < 6.

A further test deals with T3, human carbonic anhydrase 14 (CAXIV), biotinylated (Sino Biological Cat #10458-H08H) (human, UniProt Q9ULX7 16-290, biotinylated (sites not given)).
T3 construct: Bought protein, biotinylated and captured with the Biotin CAPture Kit; also called hCAXIV-bio; carbonic anhydrase XIV
T3 sequence (Q9ULX7 16-290 limits assumed): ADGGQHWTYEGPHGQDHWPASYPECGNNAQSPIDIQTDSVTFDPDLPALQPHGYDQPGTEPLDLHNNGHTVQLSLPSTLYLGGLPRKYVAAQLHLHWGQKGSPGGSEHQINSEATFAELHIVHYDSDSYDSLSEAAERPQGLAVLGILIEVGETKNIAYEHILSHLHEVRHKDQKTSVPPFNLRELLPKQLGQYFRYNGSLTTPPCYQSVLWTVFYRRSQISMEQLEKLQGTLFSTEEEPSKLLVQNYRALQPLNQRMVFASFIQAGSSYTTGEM
The test is described as follows: SPR (Biacore T200), biotinylated CAXIV captured with Biotin CAPture Kit; limit of the category in which no binding is told.
For the molecule {DOTA(Lu)}-QCE[dP]D[Aph(SaPr)]LTWSC-NH2 (linker 2-11 via mXylylene; also: DOTA complexing non-radioactive lutetium, also called natLu-3BP-4501) [3BP-4581: LuDOTA-Gln-[Cys(3MeBn)-Glu-pro-Asp-Aph(SaPr)-Leu-Thr-Trp-Ser-Cys]-NH2], the pKD was < 6.
The same measure, in the same setting: the value for B2 was < 6.

The next test deals with T4, human carbonic anhydrase 12 (CAXII), biotinylated (Sino Biological Cat #10617-H08H) (human, UniProt O43570 25-301, biotinylated (sites not given)).
T4 construct: Bought protein, biotinylated and captured with the Biotin CAPture Kit; also called hCAXII-bio; carbonic anhydrase XII
T4 sequence (O43570 25-301 limits assumed): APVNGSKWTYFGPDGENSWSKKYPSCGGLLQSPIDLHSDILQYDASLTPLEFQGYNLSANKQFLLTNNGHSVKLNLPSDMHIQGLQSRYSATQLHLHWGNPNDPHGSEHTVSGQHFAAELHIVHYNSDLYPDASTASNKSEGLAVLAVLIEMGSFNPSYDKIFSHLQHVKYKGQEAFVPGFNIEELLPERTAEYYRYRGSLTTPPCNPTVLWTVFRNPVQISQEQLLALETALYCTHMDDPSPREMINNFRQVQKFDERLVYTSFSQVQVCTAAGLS
Description: SPR (Biacore T200), biotinylated CAXII captured with Biotin CAPture Kit; limit of the category in which no binding is told.
For the molecule {DOTA(Lu)}-QCE[dP]D[Aph(SaPr)]LTWSC-NH2 (linker 2-11 via mXylylene; also: DOTA complexing non-radioactive lutetium, also called natLu-3BP-4501) [3BP-4581: LuDOTA-Gln-[Cys(3MeBn)-Glu-pro-Asp-Aph(SaPr)-Leu-Thr-Trp-Ser-Cys]-NH2], the pKD was < 6.
As to B2, the pKD is < 6.
